{
  "source": "patent US20250051407A1",
  "about": "“De novo designed sequence-specific DNA binding proteins” (University of Washington, priority 2023, published 2025)",
  "test_system": "synTF-specific cis-regulatory elements (CRE) in HEK293T cells",
  "assay": "Transcriptional activation by synTFs in HEK293T cells (ENGRAM)",
  "type": "cell-based",
  "details": "DBP fused to GCN4 dimerization domain and VP64; HEK293T cells expressing PEmax; dependent on spacing between motifs",
  "method_in_brief": "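GCN4–VP64 fusions were co-transfected into PEmax-expressing HEK293T cells with barcoded pegRNA recorders driven by CREs of 4 palindromic repeats (spacings 1, 3 or 5 bp), with a TCF-LEF recorder as control (ratio 2:2:2:1). After 2 days, the HEK3 DNA TAPE was sequenced. Activation is given as barcode fold change versus control, in triplicate.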",
  "data": [
    {"molecule": "DBP48: designed DNA-binding protein, SEQ ID NO: 22, DNA target D (protein) MTPEEIAEAKRIGKEVKERRKELGLTQRELAEKLGVSRSTVSDIENGRRLPSEELLKKIKEILGV", "values": [
      {"measurement": "Fold activation of synTFs measured as normalized barcode abundance in the DNA TAPE", "result": "didn't show detectable activation"}
    ]}
  ]
}
